Source: PMC5001605

Target: archaeal KEOPS complex (pfuPcc1, mjKae1, mjBud32, mjCgi121) (Pyrococcus furiosus | Methanococcus jannaschii) (UniProt Q8TZI1)
Assay: SEC-MALS

## archaeal KEOPS complex (pfuPcc1, mjKae1, mjBud32, mjCgi121) (from UniProt Q8TZI1 1-82; Q58530 1-328; Q58530 1-535; Q57646 1-145)
  stoichiometry N: 2
